{"source": "paper PMC2847151", "about": "(2009)", "key": {"[1]": {"biological_target": "T1, Lck SH3 (Homo sapiens, UniProt P06239)", "T1 chain": "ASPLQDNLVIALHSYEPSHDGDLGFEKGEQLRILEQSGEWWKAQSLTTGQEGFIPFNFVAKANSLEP", "test": "fluorescence titration"}, "[2]": {"biological_target": "Abl SH3 (Homo sapiens, UniProt P00519)", "sequence (P00519 58-124)": "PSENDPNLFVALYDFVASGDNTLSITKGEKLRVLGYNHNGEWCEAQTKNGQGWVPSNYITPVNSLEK", "test": "fluorescence titration"}}}
{"binder": "Ac-QLPPGPPGAPKPPPAS-NH2", "note": "[MED25]", "values": [{"measurement": "Kd", "setting": "[1]", "result": 33.5, "unit": "µM"}, {"measurement": "Kd", "setting": "[2]", "result": 2.37, "unit": "µM"}]}
